This data set deals with MS2 coat protein. Nature of the data set: apparent KD of MS2 coat protein; designed switch direction (-1 OFF switch, 1 ON switch): -1; higher = weaker reporter binding. In a few lines: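 On Illumina chips, designed RNA switches with common flanks were made by stalled E. coli RNA polymerase. Titrations with SNAP-549-labelled MS2 coat protein, doubling from 0.7 or 1.5 nM to 3 µM, were done with no input, with 200 uM small-molecule ligand, or with an oligonucleotide input. Apparent KD is the median per design over clusters, from curve fits of normalised cluster fluorescence.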

[1] abbreviates: input ligand: microRNA oligo, concentration not stated.
The mark [2] stands for this setting: Eterna round: R95, input ligand: microRNA oligo, concentration not stated.
[3] abbreviates: Eterna round: R95, input ligand: FMN 200 uM.
Setting [4] is: Eterna round: R95, input ligand: none.

As to “GUCGUGCAGCUUUGCUGUACGAGUACAUGAGGAUCACCCAUGUAGGAUAUGGUACGCUUUGCGUGCUAGAAGGAUAUGUGUAGG [salish99_ExNG3_r04_501] (Eterna round: R96, puzzle: Exclusion NG 3)”, the “apparent KD of MS2 coat protein” value is, setting by setting: (input ligand: FMN 200 uM) 49.3 nM; under setting [1], 41.7 nM; (input ligand: none) 44.3 nM.
Turning to “GUCGUGCGGCUGUGCUGUACGAGUACAUGAGGAUCACCCAUGUAGGAUAUGGUUCGUUUUGCGUGCUAGAAGGGCGUGCGUUUU [Excl-NG3-LRO17] (Eterna round: R96, puzzle: Exclusion NG 3)”, the “apparent KD of MS2 coat protein” value reads like this: (input ligand: FMN 200 uM) 17.9 nM; under setting [1], 17 nM; (input ligand: none) 21.4 nM.
“GUGAAACAUGAGGAUCACCCAUGUGAGGAUAUGUUUUAGUAAUGAUGAAAGUAAAUCUACAGAAGGCACAAUGG [Mat - Mod of JL D70] (puzzle: Exclusion 1)”: the “apparent KD of MS2 coat protein” value under setting [2] was 77.9 nM.
In the case of “GUGACCAUAGGAUAUACAUGAGGAUCACCCAUGUGCAAGUCGGAAGACCUGCGGUCAUGUAGAAGGAUGUAAUU [EX3 A.19] (Eterna round: R97, puzzle: Exclusion 3)”, the “apparent KD of MS2 coat protein” value worked out at 18.3 nM (input ligand: FMN 200 uM) and 20.9 nM (input ligand: none).
For “GUGACUCAGCAGGAUAUACGCGCGAGUGCGUAAGUAGAAGGGUUGACAUGAGGAUCACCCAUGUAGAACCACAC [Eternabot (L2) Solution 18] (Eterna round: R97, puzzle: Exclusion 6)” the same measures were 19.9 nM and 18.4 nM.
For “GUGCAAUGAGGAUAUACGUUGGUGGGCAUCUGUGUGCUCCUACAUGAGGAUCACCCAUGUAGAAGGCAUGUCAC [LRO-Excl2-19] (puzzle: Exclusion 2)”, the “apparent KD of MS2 coat protein” value under setting [2] amounted to 11.7 nM.
For “GUGGUACAUGAGGAUCACCCAUGUUAGGAUAUCGCGUGAGGUAAAACUUACACACACACGAGAAGGGACGACAU (puzzle: Exclusion 1)”, under setting [2], the “apparent KD of MS2 coat protein” value was found to be 64.4 nM.
For “GUGGUGACAGGAUAUACAUGAGGAUCACCCAUGUGAGGAGGACGAGACAGGUGAAGGAGUAGAAGGGUCAGAGA [JR_Exclu3_Sub026] (puzzle: Exclusion 3)”, the “apparent KD of MS2 coat protein” value under setting [3] is 134 nM, the “apparent KD of MS2 coat protein” value under setting [2] was determined as 61.9 nM and the “apparent KD of MS2 coat protein” value under setting [4] was found to be 95.6 nM.
For “GUGGUGGGUUUUCCGAGUAACAUGAGGAUCACCCAUGUAUUAGUUUGAUGUAUCAAGCGAAUGGCUCGUCUUAUAUA [JR_SV3TOV1_Sub045] (puzzle: Sensor v3, turn-off variant 1)” the same measures were 128 nM, 14.5 nM and 107 nM.
As to “GUGUACAGAGGAUAUACACGAGUAGUUACGAAAGUAACUAUACAUGAGGAUCACCCAUGUAGAAGGCUGUACAC [Dot plot directed v2] (puzzle: Exclusion 2)”, under setting [2], the “apparent KD of MS2 coat protein” value is 14.5 nM.
Still for that read-out and setting: with “GUGUACUGAGGAUAUACAUGAGGAUCACCCAUGUGAAUAAGAUAGAAUAAGAUAAAGUGUAGAAGGCAGAGUGU [Excluse me!!! 2 - Jieux - Exclusion 3] (puzzle: Exclusion 3)” the figure was 36.9 nM; with “GUGUAGAUAGGAUAUGCAUGAGUCUAGCGAAGCUAGGCUCUACAUGAGGAUCACCCAUGUAGAAGGGUCUACAC [Dot plot directed A v13] (puzzle: Exclusion 2)”, 18.6 nM.
Same read-out and setting: to “GUGUAGGCAGGAUAUACAUGAGGAUCACCCAUGUGAAUAAGAUAGAAUAAGAUAAAGUGUAGAAGGGUUAGUGU [Excluse me!!! 23 - Jieux - Exclusion 3] (puzzle: Exclusion 3)” belongs 31.7 nM.
For “GUUAAGGUAGGAUAUACGAUAAUAUAGGGUAGAAUAUUAACACAUGAGGAUCACCCAUGUAGAAGGACCAAUUG [Mat - Exclusion 2 - Mod of my Tesla design - D51] (puzzle: Exclusion 2)”, the “apparent KD of MS2 coat protein” value by setting is: under setting [3], 38.7 nM; under setting [2], 21.1 nM; under setting [4], 22.8 nM.
Regarding “GUUAAUUGUCACAUGGGUGACAUGAGGAUCACCCAUGUCACAAGCUUUUUGCUCGUCUUAUAAUUAACCCAUGUGAC [Stov1/12-A2] (Eterna round: R97, puzzle: Sensor, turn-off variant 1)”, the “apparent KD of MS2 coat protein” value runs as follows: (input ligand: FMN 200 uM) 14.7 nM; (input ligand: none) 13.9 nM.
On to “GUUCUUCCUGUGAGGAUAUCCAUGUGUCGGUGUGUGGAGAAGGUACAUGAGGAUCACCCAUGUCACCCGCGUUA (Eterna round: R97, puzzle: Brourd's mod of Exclusion 4)”, for which the “apparent KD of MS2 coat protein” value runs as follows: (input ligand: FMN 200 uM) 24.3 nM; (input ligand: none) 19.2 nM.
With “GUUGCGUUUGUGAGGAUAUGCUGUUCCUUGGUUCGGCAGAAGGCACAUGAGGAUCACCCAUGUGGUGUCGUUCC [salish99_Bmod_ex4_053] (puzzle: Brourd's mod of Exclusion 4)”, the “apparent KD of MS2 coat protein” value under setting [2] stood at 14.6 nM.
On to “GUUGCUACUGAGGAUAUUAUACUACCCGACUGAUAAGAAGGCAGUACAUGAGGAUCACCCAUGUGGGUAGCCAC [Polaris13] (Eterna round: R97, puzzle: Exclusion 6)”, for which the “apparent KD of MS2 coat protein” value amounted to 25.5 nM (input ligand: FMN 200 uM) and 21.7 nM (input ligand: none).
Turning to “GUUGCUACUGAGGAUAUUAUUUUACUCGACUGAUAAGAAGGCAGUACAUGAGGAUCACCCAUGUGGGUAGCCAG [Polaris16] (Eterna round: R97, puzzle: Exclusion 6)”, the “apparent KD of MS2 coat protein” value (input ligand: FMN 200 uM) turned out to be 64.7 nM and the “apparent KD of MS2 coat protein” value (input ligand: none) came to 19.3 nM.
As for “GUUGUAUGAGGAUAUACAUGAGGAUCACCCAUGUGUGUUGUGAACGACGUACGUUUAUGUAGAAGGCGUGCGGC [-24.9, -21.8 kcal, 24% A] (Eterna round: R97, puzzle: Exclusion 3)”, the “apparent KD of MS2 coat protein” value runs as follows: (input ligand: FMN 200 uM) 18.2 nM; (input ligand: none) 17.9 nM.
As to “GUUGUUUAUGUAGGAUAUGCCUGGCGUGCCUUAGCAGAAGGACAUGAGGAUCACCCAUGUAUUGCGGUCUGCGUUCAGAUCGCU [salish99_ExNG1_r4_021] (Eterna round: R96, puzzle: Exclusion NG 1)”, the “apparent KD of MS2 coat protein” value is, setting by setting: (input ligand: FMN 200 uM) 37 nM; under setting [1], 25.1 nM; (input ligand: none) 29.6 nM.
As for “GUUUACAAGCUAAGAUCCUACAUGAGGAUCACCCAUGUGGUCCGGUGACGUGAGUCACCGGACUUAGCUCGUCUUGC [salish99_S_TOV1_R5_089] (Eterna round: R97, puzzle: Sensor, turn-off variant 1)”, the “apparent KD of MS2 coat protein” value was determined as 36 nM (input ligand: FMN 200 uM) and 37.2 nM (input ligand: none).
Turning to “GUUUGAUGAGGAUAUCGAGGUUAGUACAUGAGGAUCACCCAUGUUAUCCAGGUGUCGGUUCGAGAAGGUAUUGGAC [LRO-Ex5-15] (puzzle: Exclusion 5)”, the “apparent KD of MS2 coat protein” value under setting [2] came out at 18.6 nM.
With “GUUUUCAGACGGAGAUCCUACAUGAGGAUCACCCAUGUCUCACUAGUUUUUUGCUCGUCUUAUCCUCCUCUGUUCUC [Elimod 29 - Jieux - Sensor, turn-off variant 1] (Eterna round: R97, puzzle: Sensor, turn-off variant 1)”, the “apparent KD of MS2 coat protein” value was 413 nM (input ligand: FMN 200 uM) and 926 nM (input ligand: none).
Regarding “GUUUUCAGACGGAGAUCCUACAUGAGGAUCACCCAUGUCUCUCUUGCUAAUUGCUCGUCUUAUUCUCCUCUGUUCUC [Elimod 37 - Jieux - Sensor, turn-off variant 1] (Eterna round: R97, puzzle: Sensor, turn-off variant 1)”, the “apparent KD of MS2 coat protein” value turned out to be 80.8 nM (input ligand: FMN 200 uM) and 100 nM (input ligand: none).
